Drawing on patent US20250145729A1 (DENALI THERAPEUTICS, published 2025), this text covers Kd for 15 molecules.

Test [1] deals with T1, circularly permuted human TfR apical domain (human).
T1 construct: TfR residues 326-379 stand N-terminal to 194-296, loop 297-325 deleted; also called huTfR Apical Domain
T1 chain: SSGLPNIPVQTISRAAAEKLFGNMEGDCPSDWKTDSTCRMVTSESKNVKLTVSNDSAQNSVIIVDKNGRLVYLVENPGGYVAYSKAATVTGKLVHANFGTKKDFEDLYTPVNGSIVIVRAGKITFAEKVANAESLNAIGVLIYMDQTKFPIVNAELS
The test can be described thus: SPR, supernatant, anti-Fab capture. How it is done:
(§1) Clones were expressed in HEK293 cells. Supernatants were captured for SPR by GE Healthcare anti-human Fab capture kit and the affinity to human and cyno TfR apical domain was measured (Table 30). The clones in Table 30 were bivalent and each TfR-binding Fc polypeptide also contained P329G and LALA mutations.
(In SPR one partner is held on a chip, and binding of the other changes the refractive index at the surface.)

For test [2], the target named is T2, circularly permuted cyno TfR apical domain (cynomolgus monkey).
T2 construct: same design as the human construct; also called cyTfR Apical Domain; cynomolgus TfR apical domain
T2 chain: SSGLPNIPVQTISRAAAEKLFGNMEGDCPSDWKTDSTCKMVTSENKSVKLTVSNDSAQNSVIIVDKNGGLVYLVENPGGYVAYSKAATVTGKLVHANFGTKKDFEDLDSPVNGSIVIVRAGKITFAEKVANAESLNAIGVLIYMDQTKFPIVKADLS
The test can be described thus: SPR, supernatant, anti-Fab capture. As to the method: as §1

B1: 42.8.170 (Fc fusion)
chain: APEAAGGPSVFLFPPKPKDTLMISRTPEVTCVVVDVSHEDPEVKFNWYVDGVEVHNAKTKPREEQYNSTYRVVSVLTVLHQDWLNGKEYKCKVSNKALGAPIEKTISKAKGQPREPQVYTLPPSRDELTKNQVSLTCLVKGFYPSDIAVEWFYDDQKETNYKTTPPVLDSDGSFFLYSKLTVDKSRWQQGNLFACEVMHEALHNHYTYKLLSLSPGK
notes: bivalent; P329G+LALA
As for B1, the dissociation constant (Kd) in test [1] was 1.15 µM; in test [2] it was 11.9 µM.

B2: 42.8.209 (Fc fusion)
chain: APEAAGGPSVFLFPPKPKDTLMISRTPEVTCVVVDVSHEDPEVKFNWYVDGVEVHNAKTKPREEQYNSTYRVVSVLTVLHQDWLNGKEYKCKVSNKALGAPIEKTISKAKGQPREPQVYTLPPSRDELTKNQVSLTCLVKGFYPSDIAVEWFYEDQKLTNYKTTPPVLDSDGSFFLYSKLTVDKSRWQQGNLFACEVMHEALHNHYTYKLLSLSPGK
notes: bivalent; P329G+LALA
Take B2: the dissociation constant Kd in test [1] was determined as 0.38 µM; in test [2], 6.03 µM.

B3: 42.8.176 (Fc fusion)
chain: APEAAGGPSVFLFPPKPKDTLMISRTPEVTCVVVDVSHEDPEVKFNWYVDGVEVHNAKTKPREEQYNSTYRVVSVLTVLHQDWLNGKEYKCKVSNKALGAPIEKTISKAKGQPREPQVYTLPPSRDELTKNQVSLTCLVKGFYPSDIAVEWFYDDSKETNYKTTPPVLDSDGSFFLYSKLTVDKSRWQQGNLFACEVMHEALHNHYTYKLLSLSPGK
notes: bivalent; P329G+LALA
Turning to B3, the Kd is 0.613 µM in test [1] and 9.78 µM in test [2].

B4: 42.8.191 (Fc fusion)
chain: APEAAGGPSVFLFPPKPKDTLMISRTPEVTCVVVDVSHEDPEVKFNWYVDGVEVHNAKTKPREEQYNSTYRVVSVLTVLHQDWLNGKEYKCKVSNKALGAPIEKTISKAKGQPREPQVYTLPPSRDELTKNQVSLTCLVKGFYPSDIAVEWFYEGSKLTNYKTTPPVLDSDGSFFLYSKLTVDKSRWQQGNLFACEVMHEALHNHYTYKLLSLSPGK
notes: bivalent; P329G+LALA
With B4, the figures for the Kd in test [1] and in test [2] were 0.598 µM and 8.14 µM, respectively.

B5: 42.8.205 (Fc fusion)
chain: APEAAGGPSVFLFPPKPKDTLMISRTPEVTCVVVDVSHEDPEVKFNWYVDGVEVHNAKTKPREEQYNSTYRVVSVLTVLHQDWLNGKEYKCKVSNKALGAPIEKTISKAKGQPREPQVYTLPPSRDELTKNQVSLTCLVKGFYPSDIAVEWFYEDQKENNYKTTPPVLDSDGSFFLYSKLTVDKSRWQQGNLFACEVMHEALHNHYTYKLLSLSPGK
notes: bivalent; P329G+LALA
Consider B5, for which the Kd in test [1] came to 1.13 µM; in test [2], 11.4 µM.

B6: 42.8.193 (Fc fusion)
chain: APEAAGGPSVFLFPPKPKDTLMISRTPEVTCVVVDVSHEDPEVKFNWYVDGVEVHNAKTKPREEQYNSTYRVVSVLTVLHQDWLNGKEYKCKVSNKALGAPIEKTISKAKGQPREPQVYTLPPSRDELTKNQVSLTCLVKGFYPSDIAVEWFYEAQKENNYKTTPPVLDSDGSFFLYSKLTVDKSRWQQGNLFACEVMHEALHNHYTYKLLSLSPGK
notes: bivalent; P329G+LALA
As for B6, the Kd turned out to be 1.6 µM in test [1] and 13.3 µM in test [2].

B7: 42.8.190 (Fc fusion)
chain: APEAAGGPSVFLFPPKPKDTLMISRTPEVTCVVVDVSHEDPEVKFNWYVDGVEVHNAKTKPREEQYNSTYRVVSVLTVLHQDWLNGKEYKCKVSNKALGAPIEKTISKAKGQPREPQVYTLPPSRDELTKNQVSLTCLVKGFYPSDIAVEWFYEGSKLNNYKTTPPVLDSDGSFFLYSKLTVDKSRWQQGNLFACEVMHEALHNHYTYKLLSLSPGK
notes: bivalent; P329G+LALA
For B7, the results for the Kd in test [1] and in test [2] were 1.31 µM and 9.78 µM, respectively.

B8: 42.8.206 (Fc fusion)
chain: APEAAGGPSVFLFPPKPKDTLMISRTPEVTCVVVDVSHEDPEVKFNWYVDGVEVHNAKTKPREEQYNSTYRVVSVLTVLHQDWLNGKEYKCKVSNKALGAPIEKTISKAKGQPREPQVYTLPPSRDELTKNQVSLTCLVKGFYPSDIAVEWFYEDQKETNYKTTPPVLDSDGSFFLYSKLTVDKSRWQQGNLFACEVMHEALHNHYTYKLLSLSPGK
notes: bivalent; P329G+LALA
With B8, the dissociation constant (Kd) turned out to be 0.827 µM in test [1] and 10.8 µM in test [2].

B9: 42.8.196 (Fc fusion)
chain: APEAAGGPSVFLFPPKPKDTLMISRTPEVTCVVVDVSHEDPEVKFNWYVDGVEVHNAKTKPREEQYNSTYRVVSVLTVLHQDWLNGKEYKCKVSNKALGAPIEKTISKAKGQPREPQVYTLPPSRDELTKNQVSLTCLVKGFYPSDIAVEWFYEAQKLNNYKTTPPVLDSDGSFFLYSKLTVDKSRWQQGNLFACEVMHEALHNHYTYKLLSLSPGK
notes: bivalent; P329G+LALA
Regarding B9, the Kd in test [1] came to 0.924 µM; in test [2], 9.34 µM.

B10: 42.8.211 (Fc fusion)
chain: APEAAGGPSVFLFPPKPKDTLMISRTPEVTCVVVDVSHEDPEVKFNWYVDGVEVHNAKTKPREEQYNSTYRVVSVLTVLHQDWLNGKEYKCKVSNKALGAPIEKTISKAKGQPREPQVYTLPPSRDELTKNQVSLTCLVKGFYPSDIAVEWFYEDSKENNYKTTPPVLDSDGSFFLYSKLTVDKSRWQQGNLFACEVMHEALHNHYTYKLLSLSPGK
notes: bivalent; P329G+LALA
In the case of B10, the equilibrium dissociation constant (Kd) in test [1] came to 0.966 µM; in test [2], 10.7 µM.

B11: 42.8.186 (Fc fusion)
chain: APEAAGGPSVFLFPPKPKDTLMISRTPEVTCVVVDVSHEDPEVKFNWYVDGVEVHNAKTKPREEQYNSTYRVVSVLTVLHQDWLNGKEYKCKVSNKALGAPIEKTISKAKGQPREPQVYTLPPSRDELTKNQVSLTCLVKGFYPSDIAVEWFYEGQKLSNYKTTPPVLDSDGSFFLYSKLTVDKSRWQQGNLFACEVMHEALHNHYTYKLLSLSPGK
notes: bivalent; P329G+LALA
As for B11, the values for the equilibrium dissociation constant (Kd) in test [1] and in test [2] were 2.05 µM and 22.2 µM, respectively.

B12: 42.8.198 (Fc fusion)
chain: APEAAGGPSVFLFPPKPKDTLMISRTPEVTCVVVDVSHEDPEVKFNWYVDGVEVHNAKTKPREEQYNSTYRVVSVLTVLHQDWLNGKEYKCKVSNKALGAPIEKTISKAKGQPREPQVYTLPPSRDELTKNQVSLTCLVKGFYPSDIAVEWFYEAQKLSNYKTTPPVLDSDGSFFLYSKLTVDKSRWQQGNLFACEVMHEALHNHYTYKLLSLSPGK
notes: bivalent; P329G+LALA
With B12, the Kd in test [1] is 0.841 µM; in test [2], 12.2 µM.

B13: 42.8.203 (Fc fusion)
chain: APEAAGGPSVFLFPPKPKDTLMISRTPEVTCVVVDVSHEDPEVKFNWYVDGVEVHNAKTKPREEQYNSTYRVVSVLTVLHQDWLNGKEYKCKVSNKALGAPIEKTISKAKGQPREPQVYTLPPSRDELTKNQVSLTCLVKGFYPSDIAVEWFYEASKLTNYKTTPPVLDSDGSFFLYSKLTVDKSRWQQGNLFACEVMHEALHNHYTYKLLSLSPGK
notes: bivalent; P329G+LALA
Consider B13, for which the Kd in test [1] amounted to 0.394 µM; in test [2], 5.46 µM.

B14: 42.8.200 (Fc fusion)
chain: APEAAGGPSVFLFPPKPKDTLMISRTPEVTCVVVDVSHEDPEVKFNWYVDGVEVHNAKTKPREEQYNSTYRVVSVLTVLHQDWLNGKEYKCKVSNKALGAPIEKTISKAKGQPREPQVYTLPPSRDELTKNQVSLTCLVKGFYPSDIAVEWFYEASKETNYKTTPPVLDSDGSFFLYSKLTVDKSRWQQGNLFACEVMHEALHNHYTYKLLSLSPGK
notes: bivalent; P329G+LALA
As for B14, the Kd stood at 0.505 µM in test [1] and 6.21 µM in test [2].

B15: 42.8.180 (Fc fusion)
chain: APEAAGGPSVFLFPPKPKDTLMISRTPEVTCVVVDVSHEDPEVKFNWYVDGVEVHNAKTKPREEQYNSTYRVVSVLTVLHQDWLNGKEYKCKVSNKALGAPIEKTISKAKGQPREPQVYTLPPSRDELTKNQVSLTCLVKGFYPSDIAVEWFYDDSKLSNYKTTPPVLDSDGSFFLYSKLTVDKSRWQQGNLFACEVMHEALHNHYTYKLLSLSPGK
notes: bivalent; P329G+LALA
In the case of B15, the dissociation constant (Kd) in test [1] amounted to 0.705 µM; in test [2] it was 7.91 µM.

By Kd is commonly meant the constant that tells how readily two partners part at equilibrium. Low readings indicate a tighter complex, high ones a looser complex.
